Measurements reported in the nanobody polyreactivity screen of Harvey et al. (2022).

assay: yeast display, Sf9 membrane polyspecificity reagent, FACS + sequencing; frameworks hold sequencing errors
In short: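 A nanobody's polyreactivity label depends on the gate it was sorted from. Yeast display cells were stained with 10% biotinylated, detergent-solubilized Sf9 membrane reagent for 1 hour at 4 °C, enriched on streptavidin microbeads and sorted by FACS. The low and high (top ~1%) gates were set on anti-HA fluorescence for expression and streptavidin fluorescence for reagent binding.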

Sequence	polyreactivity (PSR sort gate)
QVQLVESGGGLVQAGGSLRLSCAASGITFYGYDMGWYRQAPGKERELVAAITSDGITNYADSVKGRFTISRDNAKNTVYLQMNSLKPEDTAVYYCAADLSFYRRYEWYYYWGQGTQVTVSS	low polyreactivity
QVQLVESGGGLVQAGGSLRLSCAASGITFYINAMGWYRQAPGKERELVAVIDSRGSSTFYADSVKGRFTISRDNAKNTVYLVMKSLKPEDTAVYYCAAEPFWDYYATFYWKYGYWGQGTQVTVSS	low polyreactivity
QVQLVESGGGLVQAGGSLRLSCAASGITFYIYAMGWYRQAPGKERELVATISWSDGRTYYADSVKGRFTISRDNAKNTVYCQMNSLKPEDTAVYYCAADWWYYQFDYEYWGQGTQVTVSS	low polyreactivity
QVQLVESGGGLVQAGGSLRLSCAASGITFYIYAMGWYRQAPGKERELVATISWSDGRTYYADSVKGRFTISRDNAKNTVYLQINSLKPEDTAVYYCAADWWYYQFDYEYWGQGTQVTVSS	low polyreactivity
QVQLVESGGGLVQAGGSLRLSCAASGITFYKKVMGWYRPAPGKEKELVAAISSSGGSTYYADSVKGRFTISRDNAKNTVYLQRNSLKPEDTAVYYCAADDPLYTPYEFDYWGQGTQVTVSS	low polyreactivity
QVQLVESGGGLVQAGGSLRLSCAASGITFYLYAMGWYRQAPGKERELVAAISSSGGRTYYADSVKGRFTISRDNAKNTVYLQMNSLKPEDTAVYYCAARRYGVPPTYDYWGQGTQVTVSS	high polyreactivity
QVQLVESGGGLVQAGGSLRLSCAASGITFYLYAMGWYRQAPGKERELVAAISSSGGSTYYADSVKGRFTISRDNAKNTVYLQMNSLKPEDTAVYYCNARRRTVPYRYYYWGQGTQVTVSS	high polyreactivity
QVQLVESGGGLVQAGGSLRLSCAASGITFYPNDMGWYRQAPGKERELVAAITTNDGDTYYADSVKGRFTISRDNAKNTVYVQMNSLKPEDTAVYYCATGIDKGPVWVTYSTDYDYWGQGTQVTVSS	low polyreactivity
QVQLVESGGGLVQAGGSLRLSCAASGITFYPYAMGWYRQAPGKERELVAAITLSTGTTYYADSVKGRFTISRDNAKNTVYLQMNSLKPEDTAVYYCAVEGYWYAGWYAMDYWGQGTQVTVSS	low polyreactivity
QVQLVESGGGLVQAGGSLRLSCAASGITFYRKAMGRYRQAPGKERELVAAISRRGGITRYADSVKGRFTISRDNAKNTVYLQMNSLKPEDTAVYYCATVRYRWYSFQAERYYWGQGTQVTVSS	high polyreactivity
QVQLVESGGGLVQAGGSLRLSCAASGITFYRYALGWYRQAPGKEREFVAAISRSGVSTYYADSVKGRFTISRDNAKNTVYLQMNSLKPEDTAVYYCNKVYYPGFGYEGDYWGQGTQVTVSS	high polyreactivity
QVQLVESGGGLVQAGGSLRLSCAASGITFYRYAMGWYRQAPGKEREFVAAINYGGSSTRYADSVKGRFTISRDNAKNTVYLQMNCLKPEDTAVYYCAVEKRYPRRRYDYWGQGTQVTVSS	low polyreactivity
QVQLVESGGGLVQAGGSLRLSCAASGITFYRYAMGWYRQAPGKERELVAGITRSGGSTYYADSVKGRFTISRDNAKNTVYLQMNSLKPEDTAVYYCAARIYSFRTKGGYGYWGQGTQVTVSS	high polyreactivity
QVQLVESGGGLVQAGGSLRLSCAASGITFYRYAMGWYRQAPGKERELVASISSRGSSTYYADSVKGRFTISRDNAKNTVYLQMNSLKPEDTAVYYCAKSRGSRGFVASTYNYWGQGTQVTVSS	high polyreactivity
QVQLVESGGGLVQAGGSLRLSCAASGITFYRYAMGWYRQEPGKERELVAAISRSGGSTYYADSVKGRFTISRDNAKNTVYLQMNSLKPQDTEVYYCADYILGNRVGYDYWGQGTQVTVSS	high polyreactivity
QVQLVESGGGLVQAGGSLRLSCAASGITFYRYDMVWYRQAPGKERELVAAISRSGGSTYYADSVKGRFTISRDNAKNTVYLQMNSLKPEDSAVYYCAAYILGNRDGYDYWGQGTQVTVSS	high polyreactivity
QVQLVESGGGLVQAGGSLRLSCAASGITFYRYFMGWYRPAPGKERELVAAISRGGGSTYYADSVKGRFTISRDNAKNTVYLQMNSLKPEDTAVYYCNARYLYRHDYWGQGTQVTVSS	high polyreactivity
QVQLVESGGGLVQAGGSLRLSCAASGITFYRYTMGWYRQAPGKERELVAAIRSAGSTYYADSVKGRFTISRDNAKNTVYLQMNSLKPEDTAVYYCAATYYRYNVPYYGGNGGDYWGQGTQVTVSS	high polyreactivity
QVQLVESGGGLVQAGGSLRLSCAASGITFYRYVMGWYRQAPGKERELVAAITSRGGSTSYADSVKGRFTISRDNAKNTVYLQMNSLKPEDTAVYYCAAVYRRDYDYWGQGTQVTVSS	high polyreactivity
QVQLVESGGGLVQAGGSLRLSCAASGITFYRYVMGWYRQAPGKERELVAAITTGDSTYYADSVKGRFTISRDNAKNTVYLLMNSLKPEDTAVYYCAAVYYSALANYDYWGQGTQVTVSS	low polyreactivity
QVQLVESGGGLVQAGGSLRLSCAASGITFYSNAMGWYRQAPGKERELVAAISYRGGSTYYADSVKGRFTISRDNAKNTVYLQMNSLKPEDTAVYYCNKEVDWGWGRISYDSWGQGTQVTVSS	low polyreactivity
QVQLVESGGGLVQAGGSLRLSCAASGITFYSYTMGWYIQAPGKERELVAAISDNGGRTFYADSVKGRFTISRDNAKNTVYLQMNSLKPEDTAVYYCAADSYWYRFLKSRYDYWGQGTQVTVSS	low polyreactivity
QVQLVESGGGLVQAGGSLRLSCAASGITFYSYTMGWYRQAPGKERELVAAISDNGGRTFYADSVKGRFTISRDNAKNTVYLQMNSLKPEDTAVDYCAADYSYYTSFRYDYWGQGTQVTVSS	low polyreactivity
QVQLVESGGGLVQAGGSLRLSCAASGITFYTYTMGWYRQAPGKERELVAAISRSSGRTYYADSVKGRFTISRDNAKNTVYLQMNSLKPEDTAVYYCAAYAVESYKYDYWGQGTQVTVSS	high polyreactivity
QVQLVESGGGLVQAGGSLRLSCAASGITFYVNAMGWYRKAPGKERELVAGITLSGDSTYYADSVKGRFTISRDNAKNTVYLQMNSLKPEDTAVYYCAVEGGLWWPYTYYYWGQGTQVTVSS	high polyreactivity
QVQLVESGGGLVQAGGSLRLSCAASGITFYVYAMGWYRPAPGKVRELVAAINYDSGSTYYADSVKGRFTISRDNAKNTVYLQMNSLKPEDTAVYYCATDGVNPFYAYDYWGQGTQVTVSS	low polyreactivity
QVQLVESGGGLVQAGGSLRLSCAASGITFYWYTMGWYRQAPGKERELVADIEGDGGSTYYADSVKGRFTISRDNAKNTVYLQMNSLKPEDTAVYYCAAQVWPWGYDYWGQGTQVTVSS	high polyreactivity
QVQLVESGGGLVQAGGSLRLSCAASGITFYYNAMGWYRQAPGKERELVAAIRSAGSTYYADSVKGRFTISRDNAKNTVYLQMNSLKPEDTAVYYCAAEDGTTDQVRVYWIMDYWGQGTQVTVSS	low polyreactivity
QVQLVESGGGLVQAGGSLRLSCAASGITFYYYAMGWYRQAPGKERELVAAISDNGSRTYYADSVKGRFTISRDNAKNTVYLQMNSLKPEDTAVYYCAAEGSYGYDYWGQGTQVTVSS	high polyreactivity
QVQLVESGGGLVQAGGSLRLSCAASGITFYYYAMGWYRQAPGKERELVAAISRSGGRTYYADSVKGRFTISRDNAKNTVYLQMNSLNPEDTAVYYCAAVRYQGGDSSIEYDYWGQGTQVTLSS	high polyreactivity
